Data on 3 molecules can be found in patent publication US20020062009A1 (GlaxoSmithKline, published 2002).

The target of assay [1] is T1, human erythropoietin receptor (EPOr), recombinant entire extracellular domain (human, UniProt P19235 25-250).
T1 construct: extracellular domain; also called human EPOr; monomeric EPOr
T1 sequence (looked up): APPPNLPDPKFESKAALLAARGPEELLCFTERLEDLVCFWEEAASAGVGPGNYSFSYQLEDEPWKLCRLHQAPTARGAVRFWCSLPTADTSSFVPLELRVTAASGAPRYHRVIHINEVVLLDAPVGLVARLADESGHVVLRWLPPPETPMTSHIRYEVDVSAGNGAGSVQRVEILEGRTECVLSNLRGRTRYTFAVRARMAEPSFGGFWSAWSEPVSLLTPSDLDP
The assay can be described thus: BIAcore 1000 SPR. The method, then:
(§1) A BIAcore analysis (Pharmacia) was performed to determine the binding affinity for human EPOr of murine 3G9 and CP3G9. The interaction of CP3G9 as well as murine 3G9 with EPOr was characterized using a BIAcore 1000 biosensor. Descriptions of the instrumentation and the sensor surfaces are described in Brigham-Burke et al., Anal. Biochem., 205:125-131 (1992).
(§2) CP3G9 was captured onto a sensor surface of immobilized protein A. The kinetic binding constants were determined by passing solutions of monomeric EPOr over the surface and monitoring binding versus time. The equilibrium dissociation constant for the interaction was then derived from the ratio of the kinetic constants. The parent murine 3G9 was captured onto a surface of protein A captured rabbit anti-mouse Fc specific polyclonal antibody. The kinetics and dissociation constant for the interaction with EPOr was determined as described above. All measurements were made in 10 mM sodium phosphate, 150 mM NaCl pH 7.23 mM EDTA and 0.005% Tween 20. The flow rate was 60 uL/min. The temperature was 20° C.
(In general: Surface plasmon resonance follows binding to a sensor surface in real time, without labels.)

For assay [2], the target named is T1, human erythropoietin receptor (EPOr), …. Description: BIAcore 1000 SPR; antibody captured on immobilized protein A, monomeric EPOr in solution, 20 C. The method, then: as §1, §2
The target is the same in assay [3]. Description: BIAcore 1000 SPR; antibody captured on immobilized protein A, monomeric EPOr in solution, 20 C; KD from ratio of kinetic constants. The method, then: as §1, §2
Assay [4] has the same target. Description: BIAcore 1000 SPR; antibody captured on immobilized protein A, monomeric EPOr in solution, 20 C (exponent as printed; kon and KD imply 10^-3). The method, then: as §1, §2
The target in assay [5] is T2, purified human alpha v beta 3 integrin (biotinylated) (human, UniProt P06756 31-1048; P05106 27-788, limits assumed).
T2 construct: also called αvβ3; human integrin αvβ3
T2 sequence (P06756 31-1048 limits assumed, form in doubt, chain 1 of 2): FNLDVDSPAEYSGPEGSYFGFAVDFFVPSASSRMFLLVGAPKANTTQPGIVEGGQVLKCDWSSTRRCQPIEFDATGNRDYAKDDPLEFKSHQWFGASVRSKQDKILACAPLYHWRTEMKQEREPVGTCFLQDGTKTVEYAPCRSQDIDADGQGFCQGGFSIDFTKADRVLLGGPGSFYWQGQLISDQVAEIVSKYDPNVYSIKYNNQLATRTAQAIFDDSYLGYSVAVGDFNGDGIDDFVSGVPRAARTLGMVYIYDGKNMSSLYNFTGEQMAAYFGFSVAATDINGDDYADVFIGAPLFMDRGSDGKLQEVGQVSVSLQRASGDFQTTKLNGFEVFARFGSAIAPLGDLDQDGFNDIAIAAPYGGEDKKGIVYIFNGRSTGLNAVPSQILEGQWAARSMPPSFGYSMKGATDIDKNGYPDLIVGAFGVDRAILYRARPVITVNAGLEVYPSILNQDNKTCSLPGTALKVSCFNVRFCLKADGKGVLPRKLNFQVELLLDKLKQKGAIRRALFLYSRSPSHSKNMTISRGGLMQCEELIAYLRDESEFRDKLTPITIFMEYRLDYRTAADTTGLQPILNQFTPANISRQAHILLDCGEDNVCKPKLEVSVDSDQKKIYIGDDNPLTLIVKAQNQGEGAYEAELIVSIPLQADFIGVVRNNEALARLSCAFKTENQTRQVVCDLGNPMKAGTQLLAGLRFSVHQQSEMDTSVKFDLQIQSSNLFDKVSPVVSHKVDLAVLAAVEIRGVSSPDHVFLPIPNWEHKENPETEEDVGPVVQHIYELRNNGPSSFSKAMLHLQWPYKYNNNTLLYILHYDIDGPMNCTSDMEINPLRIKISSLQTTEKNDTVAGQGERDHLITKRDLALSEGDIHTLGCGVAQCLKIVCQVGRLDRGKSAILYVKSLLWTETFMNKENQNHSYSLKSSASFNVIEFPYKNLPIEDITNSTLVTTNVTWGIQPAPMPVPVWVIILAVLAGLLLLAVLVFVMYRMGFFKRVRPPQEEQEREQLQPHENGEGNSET
T2 sequence (P05106 27-788 limits assumed, form in doubt, chain 2 of 2): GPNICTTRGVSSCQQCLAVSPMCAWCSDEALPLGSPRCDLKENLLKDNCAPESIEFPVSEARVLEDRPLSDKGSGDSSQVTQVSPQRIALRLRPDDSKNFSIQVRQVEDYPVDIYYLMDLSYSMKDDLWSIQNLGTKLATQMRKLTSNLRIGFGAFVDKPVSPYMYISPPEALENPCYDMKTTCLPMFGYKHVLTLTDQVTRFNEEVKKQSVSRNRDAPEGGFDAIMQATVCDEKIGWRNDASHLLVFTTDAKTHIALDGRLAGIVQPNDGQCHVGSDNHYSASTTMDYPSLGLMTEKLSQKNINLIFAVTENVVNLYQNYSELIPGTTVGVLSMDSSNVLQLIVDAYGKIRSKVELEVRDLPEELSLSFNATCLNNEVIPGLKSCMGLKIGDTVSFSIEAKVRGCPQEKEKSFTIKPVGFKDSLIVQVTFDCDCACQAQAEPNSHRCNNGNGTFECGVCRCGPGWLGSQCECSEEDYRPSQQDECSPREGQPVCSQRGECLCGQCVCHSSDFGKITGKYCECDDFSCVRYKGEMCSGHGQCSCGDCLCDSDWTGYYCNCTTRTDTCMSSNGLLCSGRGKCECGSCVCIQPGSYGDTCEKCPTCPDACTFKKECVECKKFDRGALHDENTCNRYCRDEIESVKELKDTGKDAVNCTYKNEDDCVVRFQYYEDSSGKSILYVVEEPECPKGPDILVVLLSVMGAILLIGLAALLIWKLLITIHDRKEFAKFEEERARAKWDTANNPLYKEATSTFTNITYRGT
Description: ORIGEN electrochemiluminescence; antibody dilutions with biotinylated purified integrin, captured on streptavidin beads. The method, then:
The relative binding avidity of CPB9 was compared to that of the original murine B9 antibody as follows. CPB9 antibodies present in culture supernatants from cells maintained in culture for 5 days after transfection with the expression constructs were compared to the parental murine B9 antibody using the ORIGEN technology (IGEN Inc, Gaithersburg, Md.). Briefly, different dilutions of the B9 variants were incubated with purified human αvβ3 integrin which had previously been biotinylated, and an electrochemiluminescent TAG moiety specific for the antibody C regions. B9 variant antibody bound to the integrin was measured by capturing the immune complexes onto streptavidin beads followed by analysis on the ORIGEN instrument.

Assay [6] deals with T1, human erythropoietin receptor (EPOr), …. Description: BIAcore 1000 SPR; antibody captured by protein A-bound rabbit anti-mouse Fc, monomeric EPOr in solution, 20 C. The method, then: as §1, §2
For assay [7] the target is unchanged. Description: BIAcore 1000 SPR; antibody captured by protein A-bound rabbit anti-mouse Fc, monomeric EPOr in solution, 20 C; KD from ratio of kinetic constants. On the procedure:
as §1, §2

The target is the same in assay [8]. Description: BIAcore 1000 SPR; antibody captured by protein A-bound rabbit anti-mouse Fc, monomeric EPOr in solution, 20 C (exponent as printed; kon and KD imply 10^-3). The method, then:
as §1, §2

B1: engineered 3G9 (CP3G9), chimpanzee framework engineered anti-erythropoietin receptor antibody (antibody, IgG1, V domains shown)
VH: QVQLVQSGAEVKKPGSSVKVSCKASGSTFTSYWMHWVKQAPGQGLEWIGRIDPNSGGTKDNEKFKSKATLNVDKSTNIAYMELTSLRSEDTAVYYCARETYYDSSFAYWGQGTMVTVS
VL: DIVMTQSPSSLSASVGDRVTITCKASQNVGTNVAWYQQKPGKAPKALIYSASYRYSGVPDRFSGSGSGTDFTLTISSLQPEDFATYYCQQYNSYPLTFGGGTKVEIK
notes: They were ligated into vectors with IgG1,kappa antibody constant regions and expressed in COS cells; also called chimpanzee version of 3G9
Broadly, the kon is a measure of how fast the partners come together. As a reminder, the Kd is a measure of binding affinity in units of concentration. The term koff denotes the first-order rate constant of dissociation. As for B1, the “fold difference of KD against murine 3G9” value in assay [1] is at most 3 fold. Moreover, the kon in assay [2] is 1e+06 M⁻¹ s⁻¹. In addition, the Kd in assay [3] was 9.1 nM. In addition, in assay [4], the off-rate (koff) came to 0.0091 s⁻¹.

B2: engineered B9 (CPB9), chimpanzee framework engineered anti-integrin antibody (antibody, IgG1, V domains shown)
VH: QVQLVQSGAEVKKPGSSVKVSCKASGYTFSSYWIEWVKQAPGQGLEWIGEILPRSGNTNYNEKFKGKASFNADTSTNIAYMELTSLRSEDTAVYYCSSRGVRGSMDYWGQGTLVTVSS
VL: DIQMTQSPSSLSASVGDRVTITCRSSQDISNFLNWYQQKPGKAPKLLIYYTSTLHSGVPSRFSGSGSGTDYTLTISSLQPEDFATYYCQQGNTLPWTFGGGTKVEIKR
notes: They were ligated into vectors with IgG1,kappa antibody constant regions and expressed in COS cells; Tested as culture supernatant
Turning to B2, the “fold displacement of binding curve against murine B9” value in assay [5] was around 3 fold.

B3: murine anti-erythropoietin receptor antibody 3G9 (antibody, V domains shown)
VH: QVQLQQPGAELVKSGASVKLSCKASGSTFTSYWMHWVKQRPGRGLEWIGRIDPNSGGTKDNEKFKSKATLTVDKPSSTAYMQLSSLTSEDSAVYYCARETYYDSSFAYWGQGTLVTVSA
VL: DIVMTQSQKFMSTSVGDRVSVTCKASQNVGTNVAWYQQKPGQSPKALIYSASYRYSGVPDRFTGSGSGTDFTLTISNVQSEDLAEYFCQQYNSYPLTFGAGTKLELKR
notes: Murine monoclonal antibody; also called murine 3G9; parent murine 3G9
As to B3, the kon in assay [6] is 1.2e+06 M⁻¹ s⁻¹. Further, the equilibrium dissociation constant (Kd) in assay [7] was 3.3 nM. Moreover, in assay [8], the dissociation rate constant (koff) came to 0.004 s⁻¹.
